B1: 1mer[260:] (peptide, UniProt Q96Q06 260-292, looked up)
peptide: SKTVLTGTKDTVCSGVTGAMNVAKGTIQTGVDT
B2: PLIN4-4mer[326:] (domain or fragment, human, UniProt Q96Q06 326-457, looked up)
chain: SKTVLTGTKDTVCSGVTGAMNVAKGTIQTGVDTTKTVLTGTKNTVCSGVTGAVNLAKEAIQGGLDTTKSMVMGTKDTMSTGLTGAANVAKGAMQTGLNTTQNIATGTKDTVCSGVTGAMNLARGTIQTGVDT
B3: PLIN4-4mer[557:] (domain or fragment, human, UniProt Q96Q06 557-688, looked up)
chain: TKSVVIGTKDTMSTGLTGAANVAKGAVQTGVDTAKTVLTGTKDTVTTGLVGAVNVAKGTVQTGMDTTKTVLTGTKDTIYSGVTSAVNVAKGAVQTGLKTTQNIATGTKNTFGSGVTSAVNVAKGAAQTGVDT
B4: PLIN4-4mer[689:] (domain or fragment, human, UniProt Q96Q06 689-820, looked up)
chain: AKTVLTGTKDTVTTGLMGAVNVAKGTVQTSVDTTKTVLTGTKDTVCSGVTGAANVAKGAIQGGLDTTKSVLTGTKDAVSTGLTGAVKLAKGTVQTGMDTTKTVLTGTKDAVCSGVTGAANVAKGAVQMGVDT
B5: 4x1mer[260:] released from MBP-4x1mer[260:] by TEV protease (domain or fragment, human, UniProt Q96Q06 260-292, looked up)
chain: SKTVLTGTKDTVCSGVTGAMNVAKGTIQTGVDTSKTVLTGTKDTVCSGVTGAMNVAKGTIQTGVDTSKTVLTGTKDTVCSGVTGAMNVAKGTIQTGVDTSKTVLTGTKDTVCSGVTGAMNVAKGTIQTGVDT
B6: PLIN4-20mer (domain or fragment, human, UniProt Q96Q06 260-919, looked up)
chain: SKTVLTGTKDTVCSGVTGAMNVAKGTIQTGVDTSKTVLTGTKDTVCSGVTGAMNVAKGTIQTGVDTSKTVLTGTKDTVCSGVTGAMNVAKGTIQTGVDTTKTVLTGTKNTVCSGVTGAVNLAKEAIQGGLDTTKSMVMGTKDTMSTGLTGAANVAKGAMQTGLNTTQNIATGTKDTVCSGVTGAMNLARGTIQTGVDTTKIVLTGTKDTVCSGVTGAANVAKGAVQGGLDTTKSVLTGTKDAVSTGLTGAVNVAKGTVQTGVDTTKTVLTGTKDTVCSGVTSAVNVAKGAVQGGLDTTKSVVIGTKDTMSTGLTGAANVAKGAVQTGVDTAKTVLTGTKDTVTTGLVGAVNVAKGTVQTGMDTTKTVLTGTKDTIYSGVTSAVNVAKGAVQTGLKTTQNIATGTKNTFGSGVTSAVNVAKGAAQTGVDTAKTVLTGTKDTVTTGLMGAVNVAKGTVQTSVDTTKTVLTGTKDTVCSGVTGAANVAKGAIQGGLDTTKSVLTGTKDAVSTGLTGAVKLAKGTVQTGMDTTKTVLTGTKDAVCSGVTGAANVAKGAVQMGVDTAKTVLTGTKDTVCSGVTGAANVAKGAVQTGLKTTQNIATGTKNTLGSGVTGAAKVAKGAVQGGLDTTKSVLTGTKDAVSTGLTGAVNLAKGTVQTGVDT

Target: the molecule itself
Assay: thioflavin T

Binding result, binds:
B1
B2
B3
B4
B5

Target: the molecule itself
Assay: negative-stain EM of fibrils

Binding result, binds:
B6
